In paper PMC5800781 (Nature, 2017):

T1: BARD1 (human, UniProt Q99728 1-777)
T1 sequence (looked up): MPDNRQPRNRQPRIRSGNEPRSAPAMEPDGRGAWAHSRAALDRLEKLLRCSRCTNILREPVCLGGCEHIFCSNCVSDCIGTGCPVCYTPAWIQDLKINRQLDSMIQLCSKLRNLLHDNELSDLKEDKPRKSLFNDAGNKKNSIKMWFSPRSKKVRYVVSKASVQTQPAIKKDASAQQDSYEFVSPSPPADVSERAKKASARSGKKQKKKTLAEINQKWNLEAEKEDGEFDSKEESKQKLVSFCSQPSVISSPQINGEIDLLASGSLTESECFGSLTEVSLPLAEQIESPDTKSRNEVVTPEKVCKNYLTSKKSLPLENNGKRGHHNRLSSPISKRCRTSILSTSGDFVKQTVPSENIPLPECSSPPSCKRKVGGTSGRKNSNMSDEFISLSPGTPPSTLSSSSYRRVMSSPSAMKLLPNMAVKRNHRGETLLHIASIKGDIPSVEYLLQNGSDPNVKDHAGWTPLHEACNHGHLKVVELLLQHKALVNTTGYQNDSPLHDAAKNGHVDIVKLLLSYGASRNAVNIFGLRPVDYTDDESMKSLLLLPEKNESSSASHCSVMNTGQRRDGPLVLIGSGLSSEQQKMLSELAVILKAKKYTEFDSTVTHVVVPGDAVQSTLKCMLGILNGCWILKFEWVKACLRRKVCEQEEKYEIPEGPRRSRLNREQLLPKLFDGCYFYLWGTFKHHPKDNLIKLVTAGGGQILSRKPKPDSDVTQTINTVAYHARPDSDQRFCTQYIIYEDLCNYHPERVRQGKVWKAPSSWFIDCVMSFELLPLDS

B1: RAD51 (natural protein, human, UniProt Q06609 1-339, looked up)
chain: MAMQMQLEANADTSVEEESFGPQPISRLEQCGINANDVKKLEEAGFHTVEAVAYAPKKELINIKGISEAKADKILAEAAKLVPMGFTTATEFHQRRSEIIQITTGSKELDKLLQGGIETGSITEMFGEFRTGKTQICHTLAVTCQLPIDRGGGEGKAMYIDTEGTFRPERLLAVAERYGLSGSDVLDNVAYARAFNTDHQTQLLYQASAMMVESRYALLIVDSATALYRTDYSGRGELSARQMHLARFLRMLLRLADEFGVAVVITNQVVAQVDGAAMFAADPKKPIGGNIIAHASTTRLYLRKGRGETRICKIYDSPCLPEAEAMFAINADGVGDAKD
B2: GST-BARD1^123-162 (domain or fragment, human, UniProt Q99728 123-162, looked up)
chain: LKEDKPRKSLFNDAGNKKNSIKMWFSPRSKKVRYVVSKAS

Assays:
BRCA1 = BRCA1 (UniProt P38398 1-1863); experiment: far-Western, overlay or dot blot
BARD1 = molecular target: T1, BARD1; experiment: far-Western, overlay or dot blot
[1] = molecular target: BRCA1^Δ758-1064-BARD1 complex ( | human, UniProt P38398 1-1863; Q99728 1-777, Δ758-1064); experiment: pull-down
[2] = molecular target: BRCA1^1-500-BARD1 complex ( | human, UniProt P38398 1-500; Q99728 1-777); experiment: pull-down
BRCA1-BARD1 complex = BRCA1-BARD1 complex ( | human, UniProt P38398 1-1863; Q99728 1-777); experiment: pull-down
RAD51 = molecular target: B1; experiment: pull-down

Measured: binding result

B1
binds: BRCA1 | BARD1 | [1] | [2] | BRCA1-BARD1 complex

B2
binds: RAD51
